Test: yeast display, Sf9 membrane polyspecificity reagent, FACS + sequencing; frameworks hold sequencing errors
How it was run: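 Using colony PCR, genes from sorted yeast display clones were amplified, then sequenced on MiSeq at 2 × 250 and filtered by CDR length. The clones had been stained with 10% biotinylated, detergent-solubilized Sf9 membrane reagent for 1 hour at 4 °C and sorted by FACS into low and high (top ~1%) gates on anti-HA and streptavidin fluorescence. Polyreactivity labels come from the gate of origin.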

| Sequence | polyreactivity (PSR sort gate) |
| --- | --- |
| QVQLVESGGGLVQAGGSLRLSCAASGSTFYNAMGWYIQAPGKERELVAGISRNGGSTRYADSVKGRFTISRDNAKNTVYLQSHSQKPEDTAVSYCAAGYYDYGWDYANDYWGQGTQVTVSS | low polyreactivity |
| QVQLVESGGGLVQAGGSLRLSCAASGRIFYAYAMGWYRQAPGKERELVATITGIGGSTYADSVKGRFTISRDNAKNTVNLQMNSLKPEDTAVYYCNAERGVYWGRYPYKYDYWGQGTQVTVSS | low polyreactivity |
| QVQLVESGGGLVQAGGSLRLSCAASGPTFDVYAMGWYRQAPGKERELVATISWRGTSTYYADSVKGRFTISRDNAKNTVYLQMNSLKPEDTAVYYCAAEVYYEYYYWRYYWGQGTQVTVSS | high polyreactivity |
| QVQLVESAVGLVQAGGSHRLSCAASAGTFYFYAMGWYRQAPGKERELVATITRGGSTYYADSVKGRFTISRDNAKNTVYLQMNSLNPEDTAVYYCAARQYSRRRSPVSTWYYYWGQGTQVTVSS | high polyreactivity |
| QVQLVESGGGLVQAGGSLRLSCAASGSTFYQNAMGWYRQAPGKERELVAAISGGSDTYYADSVKGRFTISRDNAKNTVYLQMNSLKPEDTAFYYCAADVASSEGKSWTLKDEYDYWGQGTQVTVSS | low polyreactivity |
| QVQLVESGGGLVQAGGSLRLSCAASAITYAYYPMGWYRQAPGKETELVAGITDVGSTNYADSVKGRFTLSRDNAKNTVYLQMNSLKPEDTAGYYCAAEYDGPYYSFYPEQRYYWGQGTQVTVSS | low polyreactivity |
| QVQLVESGGGLVQAGGSLRLSCAASGSIFTIYAMGWYRQAPGKERELVAAISFSGGSTYYADSVKGRFTISRDNAKNSVYLQMNSLKPEDTAVYYCAADGGFTYDYWGQGTQVTVSS | low polyreactivity |
| QVQLVESGGGLVQAGGSLRLSCAASRYIFVRYAMGWYRQAPGKERELVAPNNSSGGRTYYAHSVKGRFTISRDNAKNTVYLQMNSLKQEDTAVYYCAAYGYYRSGYRALEGYWGQGTQVTVSS | high polyreactivity |
| QVQLQESGGGLVQAGGSLRLSCAASGTNFYKDDMGWYRQAPGKEREFVAGIDRGGTTNCAGSVKGRFTISRDNAKNTVYLQMISLKPEDTAVYYCAAYYPDIYPFIYRGQGTQVTVSS | high polyreactivity |
| QVQLVESGGGLVQAGGSLRLSCAASGGTFVSYAMGWYRQAPGKERELVAAITYSGGSTYYADSVKGRFTISRDNAKNTVYLQMNSLKPEDTGVYYCAAPKFSYFSYSPRGKFKYEYWGQGTQVTVSS | low polyreactivity |
| QVQLVESGGGLVQAGGSLRLSCAASGSIFIYNAMGWYRQGPGKERELVAAISSSGGSTYYADSVKGRFTISRDNAKNTVYLQMNSLNPEDTAVYYCAARTYYVRGLGGRPGMDYWGPGTQVTVSS | low polyreactivity |
| QVQLVESGGGLVQAGGSLRFSCAASGSTFFGNTMGWYRQAPGKERELVAAISRRGGSTYYADSVKGRFTISRDNAKNTVYLQMNSLKPEDTAVYYCAKYYHSGGYTPGKYDYWGQGTQVTVSS | high polyreactivity |
| QVQLVESGGGLVQAGGSLRLSCAASGSIVRYNTMGWYRQAPGKERELVASIRIGGSTYYADSVKGRFTISRDNAKNTVYLQMNSLKAEDTAVYYCAVRPYRSAGGSVTRGAYYYWGQGTQVTVSS | high polyreactivity |
| QVQLVESGVGLVQAGGSLRLSCAASGSIFHIYAMGWYRQAPGKERELVAAMTYADSVKGRFTISRVNAKNTVYLQMNSLKPEDTAVYECNADNWPRIHGSAYDYWGQGTQVTVSS | low polyreactivity |
| QVQLVESGGGLVQAGGSLRLSCAASGFIFSTYTMGWYRQAPGKERELVAAISWRGGRTYYADSVKGRFTISRDNAKNTVYLQMNSLKPEDTAVYYCADYGTIRSSTAVEPLYNHWGQGTQVTVSS | high polyreactivity |
| QVQLQESGGGLVQAGGSLRLSCAASGNFFDADIMGWYRQAPGKERELVASITDGGSTNYADSVKGRFTISRGNTKNTVYLLMNCLKPEDTSVYYCAAIAYPDMPTYFDYNSDYFYWGQGTQVTVSS | high polyreactivity |
| QVHLVESGGGLVQAGGSLRLSCAASGSIISRYTMGWYRQAPGKERELVAAITSSGGSTYYADSVKGRFTISRDNAKNTVYLQMNSLKPEDTAVYYCNKVNRYGKFDYWGQGTQVTVSS | high polyreactivity |
| QDHLVESGGGLVQAGGSLRLTCAASGSIFADYTMGWYRQATGKEMELVAAINNRDGGTYYADSVKGRFTISRDNAKNTVYLEMNSLKPEDTAVYYCTKQVDLSGQWDFWYGYYTYDYWGQGTQLTVSS | low polyreactivity |
| QVQLVESGGGLVQAGGSLRLSCAASGSTFRNYAMGWYRQAPGKERELVAAISGSGGRTNYADSVKGRFTISRDNAKNTVYLQMNSLKPEDNAVYYCNARFPDWALSEISHSTTYGYWGQGTQVTVSS | low polyreactivity |
| QFQLVESGGGLVHAGGSLRLICAASGRILYKYAMGWYRQAPGKERELVAAISGSGGRTYYADSVKGRFTISRDNAKNTVYLQMNSLKPEDTPVYYCAAVHPFRHVMYDYWGQGTQVTVSS | low polyreactivity |

| Sequence | polyreactivity (PSR sort gate) |
| --- | --- |
| QVQLVESGGGLVQAGGSLRLSCSASGSNFGYYAMGWYRQAPGKERELVASITWTGGSTYYADSVKGRFTISRDNAKNTVYLQMNSLKPEDTAVYYCAAQLEPSYWFWTGYGYWGQGTQVTVSS | high polyreactivity |
| QVQLVESGGGLVQAGGSLRLSCPASGRIFTSYAMGWYRQEPGKERELVAAINRGGSTYYADSVKGRFTISRDNAKNTVYLQMNSLKPEDTAVYYCNASQPYNPEFDYWRQGTQVTVSS | low polyreactivity |
| QVQLVESGGGLVQAGGSLRLSCAASGITFDYYDMGWYRQAPGKERELVATITSDGSTYYADSVKGRFTISRDNAKNTVYLQMNSLKPEDTAVYYCNARRRTVPYRYDYWGQGTQVTVSS | high polyreactivity |
| QVQLVESGGGLVQAGGSLRLSCAASGSIFYAYAMGWYTQAPGKERELVATISSVGSTYYADSVKGRFTISRDNAKNTVYLQMNSLKPEDTAVYYCAKQRIVVYKTGYDYWGQGTQVTVSS | low polyreactivity |
| QVQLVESGGGLVQAGGSLRLSCAASGRTFGGYAMVWYRQAPGKERELVATITKNGGSTYYADSVKGRFTISRDNAKNTVYVQMNSLKPEVTAVYYCATGSRGYKASPQWRDYWGQGTQVTVSS | high polyreactivity |
| QDQLLESGGGLVQAGGSLRISCAASGRTIIRNAMGWSRQAPGKERELVAAITSGGSTNYADSVKGRFTISRDNAKNTVYLQMNSLKPEDTAVYYCAARYGSQYKHRFYYWGQGTQVTVSS | high polyreactivity |
| QVQLVESGGGLVQAGGSLRLSCAASGRIFPRYAMGWYRQAPGKERELVAAITTGGSTYADSVKGRFTISRDNAKNTVYLQMNSLKPEDTAVYYCAKRDSNKRDYWGQGTQVTVSS | low polyreactivity |
| QVQLVESGGGLVQAGGSLRLSWAAYGRIVKYAMGWYREPPGKERELVAAISGSGGTTYYADSVKGRLTISRDNAKNTVEFHMKSLKPEDTAVYYCAASRPRPPSSRRMVYWGQGSQVTVSS | high polyreactivity |
| QVQVVESGGGLVQAGGSLRLSCAASGRTFDWYLMGWYRQAPGKERELVASIRGTGSTYYADSVKGRFTISRDNAKNTVYLQMNSLKAEDTAVYYCAARPGFLYSKYNYWGQGTQVTVSS | high polyreactivity |
| QVQIGESGGGLVQAGGSLRLSCAASGRTFGLYAMGWYRQAPGKERELVAAITISGGITHYADSVKGRFTISRDIAKNSVYLQMNSLKPEDTAVYYCAAEPPGFRTSGVGYWGQGTQVTVSS | low polyreactivity |
| QVQLVESGGGLVQAGGSLRLSCAASGSIFTLYDMGWYRQAPGKERELVAAITSGGSTDYADSVKGRFTISRDNAKNTVYFQMNSLKPEDTAVYYCNAEAYPYWYRGASREYDYWGQGTQVTVSS | low polyreactivity |
| QDQLVESGGGLVQAGGSLRLSCAATGFTFYSYAMGWYRQAPGKERELVAGISRSGGSTYYADSVKGRFTISRDNGKNTVYLQMKSLKPVDTAVYYCNVGLRKKIQNSKYDYWGQGTQVTVSS | high polyreactivity |
| QVQLVESGGGLVQAGGSLRLSCAASGLTFWDNAMGWYRQAPGKERELVAAITRSGGSTHYADSVKGRFTISRDNAKNTVYLQMNSLKPEDTAVYYCAADYDFYDFSYQSWSEENYWGQGTQVTVSS | low polyreactivity |
| QVQLVESGGGLVQPGGSLRLSWAASGSIFVGYAMGWYRQAPGKERELVAAISTRGGSTYYADSVKGRFTISRDNAKNTVYLQINSLKPEDTAVYYCAADYLDSTYGYVFGWDDYWGQGTLVTVSS | low polyreactivity |
| QVQLVESGGGLVQAGGSLRLRCAASGSIFGPNALGWYRQAAGKERELVAAISSGGSTNYADSVKGRFTISRDNAKNTVYLQMNSLKPEDTAVYYCAKDNYLDPPYFYRFAGYDYRGQGTQVTVSS | low polyreactivity |
| QVQLVESGGALVQAGCSLRLSCAASGRTFYRNAMGWYRQAPGKERELVARISRNGGTTYYADSVKGRFTISRDNAKNTVYLQMNSLIPEYTAVYYCAAPIYDGARGDYWGQGTQVTVCS | high polyreactivity |
| QVQLQVSGGGLVQAGGSLRLSCEASGSIFLTSEMGWYRQAPGIERELVAAIATGTSTNYADSVKGRFTISRDNAKNTVYLQMNSLKPEDTAVYYCATYHYWGQGTQVTVSS | low polyreactivity |
| QVQLVESGGGLVQAGGSLRLSCAASGFTFGKYCMGWYRQAPGKERELVAAISASGGITYYADSVKGRFTISRDNAKNTVYLQMNSLKPEDTAVYYCAARRYEPKAVYYWGQGTQVTVSS | high polyreactivity |
| QVQLVESGGGLVQAAGSLRLSCAASGFTFYSNVMGWYRQAPGKERELVAAITGRGSRTYYEDSVNGRFTISRDNAKNTVYLQMNSLKTEDTPVYYCAARYTNYGGYYWGQGTQVTVSS | high polyreactivity |
| QVQLVESGGGLVQAGGSLRLSCAASGSTFLGNVMGWYRQAPGKERELVAAISRGGSRTYYADSVKGRFTISRDNAKNTVYLQMNSLKPEDTAVYYCAAEPYAASRSGEFNYWGQGTQVTVSS | low polyreactivity |

Source: the nanobody polyreactivity screen of Harvey et al. (2022)
